Measured values from PMC5941314.

Legend:
[1] = biological target: Ube2T (Homo sapiens) (UniProt Q9NPD8); conditions: cited from earlier work
[2] = biological target: ZNRF1^CTD (C-terminal domain of ZNRF1, residues 139–227) (UniProt Q8ND25); experiment: ITC; ZNRF1 construct (10–30 µM) in the cell, E2 in the syringe; 25°C; 20 mM sodium phosphate pH 8.0, 150 mM NaCl; single site model
Chain of ZNRF1^CTD (C-terminal domain of ZNRF1, residues 139–227) (Q8ND25 139-227): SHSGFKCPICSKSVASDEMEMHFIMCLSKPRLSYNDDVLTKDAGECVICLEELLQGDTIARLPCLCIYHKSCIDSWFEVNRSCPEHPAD

Chain of Ube2W (Q96B02 whole entry): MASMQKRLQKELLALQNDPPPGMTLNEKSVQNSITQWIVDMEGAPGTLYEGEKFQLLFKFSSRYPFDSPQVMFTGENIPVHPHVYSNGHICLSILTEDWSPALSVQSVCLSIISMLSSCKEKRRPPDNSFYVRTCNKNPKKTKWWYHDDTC
Chain of Ube2D2 (P62837 whole entry): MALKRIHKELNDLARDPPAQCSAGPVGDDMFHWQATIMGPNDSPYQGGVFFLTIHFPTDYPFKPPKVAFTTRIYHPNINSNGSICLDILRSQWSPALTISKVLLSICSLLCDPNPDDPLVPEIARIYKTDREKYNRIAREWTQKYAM
Chain of Ube2T (Homo sapiens) (Q9NPD8 whole entry, the tested form may be a part): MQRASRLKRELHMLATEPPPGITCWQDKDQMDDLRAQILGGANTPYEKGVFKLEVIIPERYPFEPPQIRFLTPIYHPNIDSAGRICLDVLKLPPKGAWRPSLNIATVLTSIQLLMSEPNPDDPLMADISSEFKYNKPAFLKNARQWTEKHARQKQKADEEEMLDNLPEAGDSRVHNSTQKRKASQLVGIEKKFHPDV
Chain of FANCL (Q9NW38 2-375): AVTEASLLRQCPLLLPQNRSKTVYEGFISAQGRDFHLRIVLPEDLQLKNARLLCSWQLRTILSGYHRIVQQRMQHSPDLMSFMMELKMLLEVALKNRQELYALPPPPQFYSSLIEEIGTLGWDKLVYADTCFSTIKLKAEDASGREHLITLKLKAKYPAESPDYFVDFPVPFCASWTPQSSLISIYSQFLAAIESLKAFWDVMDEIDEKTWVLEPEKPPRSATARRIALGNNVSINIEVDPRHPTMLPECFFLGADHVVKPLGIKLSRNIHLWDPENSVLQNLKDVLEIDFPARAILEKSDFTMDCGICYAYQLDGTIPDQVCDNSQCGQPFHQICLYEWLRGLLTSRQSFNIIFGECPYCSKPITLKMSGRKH

Row | dH [2] | stoichiometry N [2] | Substance | Kd [1]
1 |  |  | FANCL (from UniProt Q9NW38) | 500 nM
2 | -8.85 kcal/mol | 0.906 | Ube2W (from UniProt Q96B02 1-151) (enzyme) | 
3 | -7.79 kcal/mol | 0.963 | Ube2D2 (from UniProt P62837 1-147) (enzyme) | 
